Laboratory results taken from patent US20250129146A1, “COMBINED CANCER THERAPY WITH AN EPITHELIAL CELL ADHESION MOLECULE (EPCAM) INHIBITOR AND A WNT INHIBITOR” (ACADEMIA SINICA, priority 2021, published 2025).
Entries after “also recorded” stand apart in the source; their conditions may differ. Read-outs that look alike come from different tables or passages of the source.

Tests used:
EpCAM [1] = target: T1, EpCAM (Homo sapiens, UniProt P16422); conditions: general description of other anti-EpCAM antibodies; cited from earlier work
T1 construct: HEK293T cells were transfected with full length or EGF like-domain deletion mutant EpCAM-V5; V5; expressed in transfected cells; host or cells: HEK293T
T1 sequence (P16422 24-314): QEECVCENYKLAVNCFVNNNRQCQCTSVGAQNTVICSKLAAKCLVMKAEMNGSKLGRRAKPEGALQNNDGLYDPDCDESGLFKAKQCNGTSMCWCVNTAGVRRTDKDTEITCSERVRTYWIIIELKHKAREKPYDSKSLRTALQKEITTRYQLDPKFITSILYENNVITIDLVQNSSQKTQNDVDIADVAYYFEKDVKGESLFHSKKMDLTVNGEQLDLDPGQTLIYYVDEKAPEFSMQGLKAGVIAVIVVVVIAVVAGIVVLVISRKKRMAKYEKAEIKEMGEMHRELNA

[2] = tested on: colon cancer cells (SW620, HCT116); conditions: general description of other anti-EpCAM antibodies; cited from earlier work
TACE = TACE activity assay; type: cell-based, human; conditions: HCT116 and HT29 cells; 250 ng/mL EpEX-His or 100 ng/mL Wnt3A for 8 h, or combination
Procedure: Cells were seeded overnight in 24-well plate ([…] cells per well) and further treated with 250 ng/mL EpEX-His or 100 ng/mL Wnt3A (R&D Systems) for 8 h. Then, TACE activity was measured using the InnoZyme TACE activity kit (Merck). In brief, cell lysates were prepared with RIPA buffer and loaded into a TACE antibody-coated plate and incubated at RT for 1 h with slight shaking. Further, the lysates were removed and the plate was washed three times. Substrate was added into each well and incubated for 5 h at 37° C. Finally, the fluorescence signal of the reaction product was detected at excitation of 324 nm and emission of 405 nm using a microplate reader.

HCT116 cells [3] = assay: Orthotopic animal model of human CRC (HCT116 cells with luciferase in cecum wall); type: in vivo, NOD/SCID mice; conditions: orthotopic model
Procedure: (§1) All animal experiments were approved and performed according to the regulations from the IACUC at Academia Sinica. HCT116 cells (1×10^6) were injected via tail vein for the metastatic model. Otherwise, 2×10^5 HCT116 cells with luciferase were surgically transplanted into the cecum wall for the orthotopic model. Male NOD/SCID mice, approximately 6 to 8 weeks old, were used for animal experiments (n=5 and n=6 for each treatment group in metastatic and orthotopic models respectively). At 72-h post-injection/transplantation, mice were randomly distributed into four different treatment groups. For the treatments, animals were injected with 20 mg/kg IgG or EpAb2-6 via tail vein twice a week for four weeks, or fed by oral gavage with either vehicle [0.5% methylcellulose (Sigma-Aldrich) and 0.5% Tween80 (Sigma-Aldrich)] or 5 mg/kg LGK974 (MedChemExpress) formulated with the vehicle on alternating days for four weeks, or animals were treated with the combination of both inhibitor and antibody. For the metastatic model, survival was the main endpoint. For the orthotopic model, tumor progression was monitor using bioluminescence imaging. To image the tumors, intraperitoneal injection of D-Luciferin (GOLD BIO) was performed, and images were taken 10 min post-injection.

EpCAM [4] = target: T1, EpCAM; assay: Antibody binding to EpCAM wild-type, deletion and point mutants in HEK293T cells (immunofluorescence, flow cytometry, cellular ELISA); conditions: EGF-like domain deletion and point mutants
Procedure: FIGS. 18A to 18G. […] HEK293T cells were transfected with full length or EGF like-domain deletion mutant EpCAM-V5. Antibody binding was assessed by (FIG. 8A) Western blotting, (FIG. 8B) flow cytometry, and (FIG. 8C) immunofluorescence. (FIG. 8D) EpCAM mutants were constructed with amino acid substitutions in the EGF-I (Y32A) and EGF-II (L94A, Y95A, or D96A) domains. EpCAM wild-type and mutant proteins were expressed in HEK293T cells. Binding of MT201, EpAb2-6 and EpAb23-1 to EpCAM wild-type and mutants were evaluated by (FIG. 8E) immunofluorescence, (FIG. 8F) flow cytometry, and (FIG. 8G) cellular ELISA. All data are presented as mean±SEM. *, p<0.05; **, p<0.01.
Here, we wanted to determine whether the antibody binds to EpCAM at both EGF-like domains of EpEX (FIG. 18A, FIG. 18B, FIG. 18C). To confirm that EpAb2-6 recognizes the LYD motif in EpCAM, we constructed cDNA sequences encoding the first (aa 27-59; EGF-I domain) and second (aa 66-135; EGF-II/TY domain) EGF-like repeats of EpCAM. PCR-based site-directed mutagenesis was then used to introduce mutations into each domain (FIG. 18D). The reactivity of EpAb2-6 antibody toward these EpCAM mutants was evaluated by immunofluorescence (FIG. 18E), flow cytometry (FIG. 18F), and cellular ELISA (FIG. 18G).

HCT116 cells [5] = assay: Metastatic animal model of human CRC (HCT116 cells via tail vein); type: in vivo, NOD/SCID mice
Procedure: as §1

recombinant LRP6 = target: T2, recombinant LRP6 (Homo sapiens, UniProt O75581); assay: ELISA of EpEX binding to Wnt receptor-coated plates (LRP6); conditions: EpEX-His alone, 2 hours; optical density at 450 nm
T2 construct: purchased Proteintech
T2 sequence (O75581 20-1613): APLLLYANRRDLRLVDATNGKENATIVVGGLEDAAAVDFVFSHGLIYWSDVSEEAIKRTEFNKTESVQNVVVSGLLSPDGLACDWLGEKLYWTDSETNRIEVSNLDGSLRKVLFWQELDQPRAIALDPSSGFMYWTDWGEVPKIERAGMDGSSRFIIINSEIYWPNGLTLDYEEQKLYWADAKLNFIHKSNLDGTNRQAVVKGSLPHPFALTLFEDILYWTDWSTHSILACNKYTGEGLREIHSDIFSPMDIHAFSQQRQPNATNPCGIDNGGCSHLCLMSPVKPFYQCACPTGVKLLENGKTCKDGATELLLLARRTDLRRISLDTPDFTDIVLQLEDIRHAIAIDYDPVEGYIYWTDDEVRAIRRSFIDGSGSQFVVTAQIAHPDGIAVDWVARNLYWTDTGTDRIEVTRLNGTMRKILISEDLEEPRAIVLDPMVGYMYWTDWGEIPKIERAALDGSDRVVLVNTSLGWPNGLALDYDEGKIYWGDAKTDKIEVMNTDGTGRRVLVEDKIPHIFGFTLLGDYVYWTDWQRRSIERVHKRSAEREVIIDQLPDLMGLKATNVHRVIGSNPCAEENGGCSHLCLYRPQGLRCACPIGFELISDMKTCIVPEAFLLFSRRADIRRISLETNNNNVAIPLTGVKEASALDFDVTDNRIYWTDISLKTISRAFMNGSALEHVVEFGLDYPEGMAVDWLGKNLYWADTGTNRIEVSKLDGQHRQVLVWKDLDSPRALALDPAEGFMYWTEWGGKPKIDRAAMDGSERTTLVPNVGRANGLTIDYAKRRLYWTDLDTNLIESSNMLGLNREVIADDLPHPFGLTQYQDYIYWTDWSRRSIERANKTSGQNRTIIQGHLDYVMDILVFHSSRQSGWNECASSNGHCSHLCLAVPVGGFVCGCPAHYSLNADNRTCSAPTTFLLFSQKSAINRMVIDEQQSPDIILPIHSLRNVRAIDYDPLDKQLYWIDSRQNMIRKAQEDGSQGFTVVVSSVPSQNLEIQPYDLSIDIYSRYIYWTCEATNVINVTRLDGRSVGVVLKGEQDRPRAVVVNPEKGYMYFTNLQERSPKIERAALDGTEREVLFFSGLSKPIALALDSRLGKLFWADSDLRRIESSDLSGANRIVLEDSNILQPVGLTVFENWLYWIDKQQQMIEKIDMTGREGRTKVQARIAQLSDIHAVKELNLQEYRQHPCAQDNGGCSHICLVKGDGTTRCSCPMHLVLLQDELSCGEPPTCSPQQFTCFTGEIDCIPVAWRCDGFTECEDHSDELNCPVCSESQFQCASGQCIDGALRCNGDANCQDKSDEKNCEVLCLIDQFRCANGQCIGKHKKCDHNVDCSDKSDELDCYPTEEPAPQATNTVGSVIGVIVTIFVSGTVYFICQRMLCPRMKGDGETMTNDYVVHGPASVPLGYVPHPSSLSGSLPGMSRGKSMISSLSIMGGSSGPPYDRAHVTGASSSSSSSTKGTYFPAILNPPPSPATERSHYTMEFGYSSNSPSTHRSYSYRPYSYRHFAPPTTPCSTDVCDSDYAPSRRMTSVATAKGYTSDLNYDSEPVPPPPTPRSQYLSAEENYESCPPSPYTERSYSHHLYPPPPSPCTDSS
Procedure: For ELISA, wells (at least 6 wells per single protein) were coated with recombinant FZD6 (Proteintech), recombinant FZD7 (Proteintech), recombinant LRP5 (Proteintech), recombinant LRP6 (Proteintech) overnight at 4° C. The wells were then blocked with 1% BSA and treated with EpEX-his (Produced in house by Expi293 Expression System) for 2 hours. Otherwise, EpEX-His was incubated with EpAb2-6 overnight and the complex was used to treat the protein-coated plates for 2 hours. Further anti-His antibody (abeam) was used and TMB was performed to record optical density at 450 nm.

[6] = 20 mg/kg EpAb2-6 via tail vein twice a week, 5 mg/kg LGK974 oral gavage on alternating days, four weeks

MT201: adecatumumab, a human anti-EpCAM antibody that was subjected to clinical trials [reference compound]
EpCAM domains bound (EpCAM [1]): target only the well-described EGF I domain of EpCAM; also recorded: binding to domain I only | inducing apoptosis of cancer cells [2]: failing

B1: Wnt3A: recombinant Wnt3A (R & D systems) (protein, UniProt P56704 19-352, looked up)
Protein Wnt-3a: SYPIWWSLAVGPQYSSLGSQPILCASIPGLVPKQLRFCRNYVEIMPSVAEGIKIGIQECQHQFRGRRWNCTTVHDSLAIFGPVLDKATRESAFVHAIASAGVAFAVTRSCAEGTAAICGCSSRHQGSPGKGWKWGGCSEDIEFGGMVSREFADARENRPDARSAMNRHNNEAGRQAIASHMHLKCKCHGLSGSCEVKTCWWSQPDFRAIGDFLKDKYDSASEMVVEKHRESRGWVETLRPRYTYFKVPTERDLVYYEASPNFCEPNPETGSFGTRDRTCNVSSHGIDGCDLLCCGRGHNARAERRREKCRCVFHWCCYVSCQECTRVYDVHTCK
TACE activity (TACE): enhanced

B2: EpAb2-6: anti-EpCAM (EpEX) neutralizing monoclonal antibody produced in mice by hybridoma; VH SEQ ID NO: 15, VL SEQ ID NO: 16 (antibody, V domains shown)
VH: VKLQESGPELKKPGETVKISCKASGYTFTDYSMHWVKQAPGKGLKWMGWINTETGEPTYADDFKGRFAFSLETSASTAYLQINNLKNEDTATYFCARTAVYWGQGTTVTVSS
VL: DIQMTQSPSSLSASLGERVSLTCRASQEISVSLSWLQQEPDGTIKRLIYATSTLDSGVPKRFSGSRSGSDYSLTISSLESEDFVDYYCLQYASYPWTFGGGTKLEIK
median / overall survival (HCT116 cells [3]): relatively higher median survival | tumor progression (bioluminescence) (HCT116 cells [3]; [6]): much slower tumor progression | EpCAM domains bound (EpCAM [4]): binds to the EGF-I and EGF-II domains of EpEX; also recorded: binds to both EGF-like domain I and II of EpCAM | animal survival (HCT116 cells [5]; [6]): can prolong animal survival; also recorded: could prolong animal survival | mice died by the end of the study (HCT116 cells [5]; n=5 per group): 2 out of 5

B3: EpEX: extracellular domain of EpCAM, produced in house by Expi293 Expression System (protein)
chain: QEECVCENYKLAVNCFVNNNRQCQCTSVGAQNTVICSKLAAKCLVMKAEMNGSKLGRRAKPEGALQNNDGLYDPDCDESGLFKAKQCNGTSMCWCVNTAGVRRTDKDTEITCSERVRTYWIIIELKHKAREKPYDSKSLRTALQKEITTRYQLDPKFITSILYENNVITIDLVQNSSQKTQNDVDIADVAYYFEKDVKGESLFHSKKMDLTVNGEQLDLDPGQTLIYYVDEKAPEFSMQGLKAGVIAVIVVVVIAVVAGIVVLVISRKKRMAKYEKAEIKEMGEMHRELNA
TACE activity (TACE): enhanced | EpEX binding to LRP6 (recombinant LRP6): bind with all receptor proteins
